The target in test [1] is T1, recombinant human BCMA-hFc (soluble human BCMA fused at its C-terminus to an Fc region of IgG) (human, UniProt Q02223 1-54, limits assumed, biotinylated in the KinExA experiment of p-1044 (site not stated)).
T1 sequence (looked up): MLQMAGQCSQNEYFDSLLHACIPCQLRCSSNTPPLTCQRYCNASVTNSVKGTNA
Briefly: cell-based or functional assay.

Test [2] concerns the target T2, cynoBCMA coated on 96-well flat-bottom plates (cynomolgus monkey). The test can be described thus: cell-based or functional assay.
In test [3] the target is T2, cynoBCMA coated on 96-well flat-bottom …. Briefly: cell-based or functional assay. The source holds these as a separate data set.
For test [4], the target named is T1, recombinant human BCMA-hFc (soluble …). Briefly: kinetics exclusion assay; CAR expressed in a Jurkat T cell line, soluble rhBCMA hFc; CAR on Jurkat cells, kinetics exclusion assay.
The target is the same in test [5]. The test can be described thus: KinExA kinetic exclusion analysis; serially diluted CAR-expressing Jurkat cells equilibrated with 20 nM or 1 nM biotinylated rhBCMA hFc. The method, then:
In a further experiment, Jurkat cells were transduced with a polynucleotide encoding a CAR with a BCMA-55-derived scFv binding domain and were cultured to a density of ˜2×10⁶. The cells were harvested and spun at 1500 g for 15 minutes at 4° C. The cell pellet was washed and cells were resuspended and serially diluted in 20 nM or 1 nM biotinylated rhBCMA hFc (also referred to in this assay as the constant binding partner (CBP). After equilibration, cells were spun down and supernatants were harvested for KinExa kinetic exclusion analysis. Briefly, supernatants from equilibrated BCMA-55-LS CAR O/SSE-expressing Jurkat cells containing rhBCMA hFc were flowed over a streptavidin bead flow cell to capture free biotinylated rhBCMA hFc. The rhBCMA was then detected using a secondary anti-hBCMA antibody that was fluorescently labelled. The […] of the detected rhBCMA hFc was recorded for each sample, and plotted against the number of cells in each dilution (Darling (2004) Assay Drug. Dev., 2:647-657).
(In general: Kinetic exclusion samples the free partner from a solution-phase mixture.)

The target of test [6] is T3, human BCMA peptide 30SNTPPLTCQR39 (human).
T3 construct: Peptide of the CLIPS array; could be recognized in a linear form
T3 peptide: SNTPPLTCQR
Briefly: CLIPS peptide array ELISA. The method, then: (§1) Epitopes recognized, e.g., specifically bound to, by exemplary anti-BCMA scFv clones (BCMA-1, BCMA-5, BCMA-9, BCMA-23, BCMA-25, BCMA-26, BCMA-52 and BCMA-55 anti-BCMA scFvs), were assessed using full discontinuous epitope mapping by Chemical Linkage of Peptides onto Scaffolds (CLIPS; Pepscan Presto BV, Lelystad, The Netherlands; see, e.g., Timmerman et al., (2007) J. Mol. Recognit. 20: 283-329). Mapping was carried out using anti-BCMA scFv clones, such as those fused with mouse Fc (scFv-mFc).
(§2) Linear and conformational peptide libraries of amino acid residues 1-54 of human BCMA (set forth as amino acid residues 1-54 of SEQ ID NO:164) were generated based on a combinatorial matrix design. Linear peptides and structural mimetics including single loop, α-helix, β-turn, combinatorial and linear disulfide bridge mimics, and discontinuous epitope mimics were used, along with positive and negative control peptides, on an amino-functionalized solid support.
(§3) Affinities for binding to the peptides in the epitope library were determined using ELISA. The peptide arrays were incubated with a solution containing the scFv overnight at 4° C. Affinity information was used in iterative screens to define the sequence and conformation of epitopes. Heat maps of affinity information for two or more loops were generated.
(In an ELISA, binding on a coated surface is turned into a signal by an enzyme label.)

The target in test [7] is T4, human BCMA amino acid residues 1-54 (linear and conformational CLIPS peptide libraries) (human).
T4 construct: Not one polypeptide in the assay: arrays of linear peptides and structural mimetics that cover residues 1-54
T4 chain: T1 sequence (looked up)
The test can be described thus: CLIPS peptide array ELISA. Here is the method:
as §1, §2, §3

The target in test [8] is T1, recombinant human BCMA-hFc (soluble …). Briefly: Biacore-based assay; scFv-Fc and recombinant human BCMA fusion protein; scFv-Fc fusion, Biacore-based assay. (SPR reads the build-up and loss of mass on a sensor chip optically.)

Consider seven molecules from patent US20210393690A1 (JUNO THERAPEUTICS, published 2021).

Broadly, the EC50 (read off the curve) is the concentration giving half of the maximal effect. The Kd is a measure of binding affinity in units of concentration.

Where two headings read alike, the source gives them in different places.

T2 sequence (chain, as listed by the source): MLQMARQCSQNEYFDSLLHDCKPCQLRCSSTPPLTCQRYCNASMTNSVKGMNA

B1: BCMA-55-LS-O/SSE CAR (other)
chain: QSALTQPASVSASPGQSIAISCTGTSSDVGWYQQHPGKAPKLMIYEDSKRPSGVSNRFSGSKSGNTASLTISGLQAEDEADYYCSSNTRSSTLVFGGGTKLTVLGSRGGGGSGGGGSGGGGSLEMAEVQLVQSGAEMKKPGASLKLSCKASGYTFIDYYVYWMRQAPGQGLESMGWINPNSGGTNYAQKFQGRVTMTRDTSISTAYMELSRLRSDDTAMYYCARSQRDGYMDYWGQGTLVTVSSESKYGPPCPPCPAPPVAGPSVFLFPPKPKDTLMISRTPEVTCVVVDVSQEDPEVQFNWYVDGVEVHNAKTKPREEQFQSTYRVVSVLTVLHQDWLNGKEYKCKVSNKGLPSSIEKTISKAKGQPREPQVYTLPPSQEEMTKNQVSLTCLVKGFYPSDIAVEWESNGQPENNYKTTPPVLDSDGSFFLYSRLTVDKSRWQEGNVFSCSVMHEALHNHYTQKSLSLSLGKMFWVLVVVGGVLACYSLLVTVAFIIFWVKRGRKKLLYIFKQPFMRPVQTTQEEDGCSCRFPEEEEGGCELRVKFSRSADAPAYQQGQNQLYNELNLGRREEYDVLDKRRGRDPEMGGKPRRKNPQEGLYNELQKDKMAEAYSEIGMKGERRRGKGHDGLYQGLSTATKDTYDALHMQALPPR
notes: Chimeric antigen receptor on the surface of Jurkat cells, Jurkat Nur77 reporter cells or primary T cells; also called BCMA-55-LS CAR; BCMA-55-L CAR
Regarding B1, the “EC50 (read off the curve)” value is ~0.2 µg/mL in test [1], ~1 µg/mL in test [2] and ~0.9 µg/mL in test [3]. For the same molecule, the results for the dissociation constant Kd in test [4] and in test [5] were ~1 nM and ~1.46 nM, respectively.

B2: BCMA-25 anti-BCMA scFv (scFv)
scFv: EVQLVQSGGGLVQPGRSLRLSCTASGFTFGDYAMSWFRQAPGKGLEWVGFIRSKAYGGTTEYAASVKGRFTISRDDSKSIAYLQMNSLKTEDTAVYYCAAWSAPTDYWGQGTLVTVSSGGGGSGGGGSGGGGSDIQMTQSPAFLSASVGDRVTVTCRASQGISNYLAWYQQKPGNAPRLLIYSASTLQSGVPSRFRGTGYGTEFSLTIDSLQPEDFATYYCQQSYTSRQTFGPGTRLDIK
On to B2, for which, in test [6], the binding result was “binds”.

B3: BCMA-52-scFv-mFc (Fc fusion, not shown: a dimerising Fc or GST)
chain: SYELTQPPSASGTPGQRVTMSCSGTSSNIGSHSVNWYQQLPGTAPKLLIYTNNQRPSGVPDRFSGSKSGTSASLAISGLQSEDEADYYCAAWDGSLNGLVFGGGTKLTVLGSRGGGGSGGGGSGGGGSLEMAEVQLVQSGAEVKKPGESLKISCKGSGYSFTSYWIGWVRQMPGKGLEWMGIIYPGDSDTRYSPSFQGHVTISADKSISTAYLQWSSLKASDTAMYYCARYSGSFDNWGQGTLVTVSS
For the molecule B3, the binding result in test [7] was “binds”.

B4: BCMA-26 anti-BCMA scFv (scFv)
scFv: EVQLVESGGGLVKPGGSLRLSCAASGFTFSDYYMSWIRQAPGKGLEWVSYISSSGSTIYYADSVKGRFTISRDNAKNSLYLQMNSLRAEDTAVYYCAKVDGPPSFDIWGQGTMVTVSSGGGGSGGGGSGGGGSSYVLTQPPSVSVAPGQTARITCGANNIGSKSVHWYQQKPGQAPMLVVYDDDDRPSGIPERFSGSNSGNTATLTISGVEAGDEADYFCHLWDRSRDHYVFGTGTKLTVL
As to B4, the binding result in test [7] is reported as “binds”.

B5: BCMA-23 anti-BCMA scFv (scFv)
scFv: EVQLVESGGGLVKPGGSLRLSCAASGFTFSDYYMSWIRQAPGKGLEWVSYISSSGSTIYYADSVKGRFTISRDNAKNSLYLQMNSLRAEDTAVYYCAKVDGDYTEDYWGQGTLVTVSSGGGGSGGGGSGGGGSQSALTQPASVSGSPGQSITISCTGSSSDVGKYNLVSWYQQPPGKAPKLIIYDVNKRPSGVSNRFSGSKSGNTATLTISGLQGDDEADYYCSSYGGSRSYVFGTGTKVTVL
B5: the binding result in test [6] is recorded as “binds”.

B6: BCMA-55-scFv-mFc (Fc fusion, not shown: a dimerising Fc or GST)
chain: QSALTQPASVSASPGQSIAISCTGTSSDVGWYQQHPGKAPKLMIYEDSKRPSGVSNRFSGSKSGNTASLTISGLQAEDEADYYCSSNTRSSTLVFGGGTKLTVLGSRGGGGSGGGGSGGGGSLEMAEVQLVQSGAEMKKPGASLKLSCKASGYTFIDYYVYWMRQAPGQGLESMGWINPNSGGTNYAQKFQGRVTMTRDTSISTAYMELSRLRSDDTAMYYCARSQRDGYMDYWGQGTLVTVSS
Regarding B6, the binding result in test [7] was “binds”.

B7: BCMA-55 scFv-Fc fusion protein (Fc fusion)
chain: B6 chain
notes: Fc fusion protein containing the scFv portion of the BCMA-55 CAR; also called BCMA-55-Fc; not shown: Fc region
Consider B7, for which the Kd in test [8] was ~10 nM.
